Experimental data from the RNAGym collection of RNA variant scans (doi:10.1093/molbev/msab373).

B1: Azoarcus group I ribozyme (parent)
chain: GUGCCUUGCGCCGGGAAACCACGCAAGGGAUGGUGUCAAAUUCGGCGAAACCUAAGCGCCCGCCCGGGCGUAUGGCAACGCCGAGCCAAGCUUCGGCGCCUGCGCCGAUGAAGGUGUAGAGACUAGACGGCACCCACCUAAGGCAAACGCUAUGGUGAAGGCAUAGUCCAGGGAGUGGCGAAAGUCACACAAACCGG

Variants of: B1
Assay: reverse-splicing fitness (ratio to wild type); higher = more active; in vitro selection; Mg2+ level not given
Method in brief: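 An in vitro group I ribozyme library with randomized positions was T7-transcribed and gel-purified. In triplicate, 10 pmol RNA in EPPS pH 7.5 was reacted with 50 pmoles of a 30-nt RNA substrate for 1 h at 37 °C across several added MgCl2 levels (1–48 mM), then stopped with EDTA. Products were reverse transcribed from a substrate-complementary primer, PCR-amplified and sequenced (HiSeq 4000). Fitness is a variant's read proportion after selection over that before, normalised to wild type.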

Variant	reverse-splicing fitness
C82G A111G A145C C150G C169G U176A	0.0101
C82G A111G A145C C150G C169G U176C	0.00856
C82G A111G A145C C150G C169G U176G	0.0057
C82G A111G A120U A145U U176C	0.0296
C82G A111G A120U A145U U176A	0.0168
C82G A111G A120U A145U U176G	0.00582
C82G A111G A120U C150A C169A U176C	0.00424
C82G A111G A120U C150A C169A U176G	0.00223
C82G A111G A120U C150A C169A U176A	0.00549
C82G A111G A120U A145G C150G C169G	0.00722
C82G A111G A120U A145G C150G C169A	0.00921
C82G A111G A120U A145G C150G C169U	0.00737
C82G A111G A120U C150G C169G U176A	0.00638
C82G A111G A120U C150G C169G U176G	0.00263
C82G A111G A120U C150G C169G U176C	0.00486
C82G A111G A145G C169A U176G	0.0057
C82G A111G A145G C169A U176A	0.0158
C82G A111G A145G C169A U176C	0.0235
C82G A111G A120U A145G C169A U176A	0.00574
C82G A111G A120U A145G C169A U176G	0.00176
C82G A111G A120U A145G C169A U176C	0.00535
C82G A111G A120U A145G C169U U176G	0.00164
C82G A111G A120U A145G C169U U176C	0.00485
C82G A111G A120U A145G C169U U176A	0.00415

Variant	reverse-splicing fitness
C82G A111G A145G C150G C169G U176G	0.0064
C82G A111G A145G C150G C169G U176A	0.011
C82G A111G A145G C150G C169G U176C	0.0126
C82G A111G A120U C150A C169U U176A	0.00523
C82G A111G A120U C150A C169U U176G	0.00229
C82G A111G A120U C150A C169U U176C	0.00456
C82G A111G A120U A145U C169U	0.00451
C82G A111G A120U A145U C169A	0.00239
C82G A111G A120U A145U C169G	0.00363
C82G A111G A145G C150A	0.0499
C82G A111G A145G C150G	0.0374
C82G A111G A145G C150U	0.316
C82G A111G A120U A145G C169G U176C	0.00531
C82G A111G A120U A145G C169G U176A	0.00491
C82G A111G A120U A145G C169G U176G	0.00184
C82G A111G A120U C150A C169G	0.00433
C82G A111G A120U C150A C169A	0.00558
C82G A111G A120U C150A C169U	0.00399
C82G A111G A145U C150G U176A	0.0185
C82G A111G A120U C150G C169U U176G	0.00278
C82G A111G A120U C150G C169U U176A	0.00421
C82G A111G A120U C150G C169U U176C	0.00723
C82G A111G A145G C150G C169G	0.00774
C82G A111G A145G C150G C169A	0.00978

Variant	reverse-splicing fitness
C82G A111G A145G C150G C169U	0.0102
C82G A111G A145C C150G C169G	0.00758
C82G A111G A145C C150G C169A	0.00828
C82G A111G A145C C150G C169U	0.00923
C82G A111G A145G C150A U176G	0.0208
C82G A111G A145G C150A U176A	0.0383
C82G A111G A145G C150A U176C	0.051
C82G A111G A120U C169G U176A	0.00289
C82G A111G A120U C169G U176G	0.00169
C82G A111G A120U C169G U176C	0.00434
C82G A111G A120U C150A C169G U176A	0.00749
C82G A111G A120U C150A C169G U176C	0.00399
C82G A111G A120U C150A C169G U176G	0.00187
C82G A111G A120U C169U U176A	0.00385
C82G A111G A120U C169U U176C	0.0055
C82G A111G A120U C169U U176G	0.00158
C82G A111G A120U A145G C150U C169U	0.00611
C82G A111G A120U A145G C150U C169A	0.00681
C82G A111G A120U A145G C150U C169G	0.00707
C82G A111G A145U C150A C169U U176A	0.0141
C82G A111G A145U C150A C169U U176G	0.00554
C82G A111G A145U C150A C169U U176C	0.0148
C82G A111G A145C C150A C169G	0.00798
C82G A111G A145C C150A C169A	0.00763

Variant	reverse-splicing fitness
C82G A111G A145C C150A C169U	0.0097
C82G A111G A145C C150U C169U U176G	0.0062
C82G A111G A145C C150U C169U U176C	0.0103
C82G A111G A145C C150U C169U U176A	0.0142
C82G A111G A145U C150A C169G	0.00845
C82G A111G A145U C150A C169A	0.00827
C82G A111G A145U C150A C169U	0.00982
C82G A111G A145G C150U C169G U176A	0.017
C82G A111G A145G C150U C169G U176C	0.0216
C82G A111G A145G C150U C169G U176G	0.00635
C82G A111G A120U A145U	0.0713
C82G A111G A120U A145U C150A C169U U176C	0.0029
C82G A111G A120U A145U C150A C169U U176G	0.00215
C82G A111G A120U A145U C150A C169U U176A	0.00305
C82G A111G A120U A145G C150G C169U U176G	0.00375
C82G A111G A120U A145G C150G C169U U176A	0.00708
C82G A111G A120U A145G C150G C169U U176C	0.009
C82G A111G A145C C150A	0.0192
C82G A111G A145C C150G	0.0378
C82G A111G A145C C150U	0.0841
C82G A111G A120U A145G C150A U176G	0.00391
C82G A111G A120U C169A U176A	0.00371
C82G A111G A120U C169A U176G	0.00169
C82G A111G A120U C169A U176C	0.00309

Variant	reverse-splicing fitness
C82G A111G A145C C169A U176G	0.00537
C82G A111G A145C C169A U176C	0.00787
C82G A111G A145C C169A U176A	0.0111
C82G A111G A145U C150A U176G	0.0136
C82G A111G A145U C150A U176A	0.03
C82G A111G A145U C150A U176C	0.0339
C82G A111G A120U A145U C150A U176A	0.00578
C82G A111G A120U A145U C150A U176G	0.00244
C82G A111G A120U A145U C150A U176C	0.00553
C82G A111G A145G C169G U176A	0.016
C82G A111G A145G C169G U176G	0.00505
C82G A111G A145G C169G U176C	0.0231
C82G A111G A145G U176A	0.25
C82G A111G A145G U176C	0.27
C82G A111G A145G U176G	0.0821
C82G A111G A120U C150G C169A U176C	0.00831
C82G A111G A120U C150G C169A U176G	0.00267
C82G A111G A120U C150G C169A U176A	0.00788
C82G A111G A120U C150G C169G	0.00678
C82G A111G A120U C150G C169U	0.0064
C82G A111G A120U C150G C169A	0.00761
C82G A111G A145G C150A C169A U176G	0.00692
C82G A111G A145G C150A C169A U176C	0.0222
C82G A111G A145G C150A C169A U176A	0.0234

Variant	reverse-splicing fitness
C82G A111G A120U A145U C150A C169U	0.0024
C82G A111G A120U A145U C150A C169A	0.00193
C82G A111G A120U A145U C150A C169G	0.0027
C82G A111G A145C U176G	0.116
C82G A111G A145C U176C	0.258
C82G A111G A145C U176A	0.267
C82G A111G A145G C150G C169U U176A	0.012
C82G A111G A145G C150G C169U U176C	0.0131
C82G A111G A145G C150G C169U U176G	0.00803
C82G A111G A120U A145U C150U	0.04
C82G A111G A120U A145U C150A	0.00764
C82G A111G A120U A145U C150G	0.00894
C82G A111G A120U A145G C150U C169U U176A	0.00467
C82G A111G A120U A145G C150U C169U U176G	0.00229
C82G A111G A120U A145G C150U C169U U176C	0.00574
C82G A111G A120U A145U C150U C169A U176G	0.00186
C82G A111G A120U A145U C150U C169A U176A	0.00294
C82G A111G A120U A145U C150U C169A U176C	0.00239
C82G A111G A120U A145G U176A	0.0143
C82G A111G A120U A145G U176C	0.0283
C82G A111G A120U A145G U176G	0.00435
C82G A111G A145G C169A	0.00875
C82G A111G A145G C169U	0.0129
C82G A111G A145G C169G	0.0101

Variant	reverse-splicing fitness
C82G A111G A120U A145U C150A C169A U176C	0.00223
C82G A111G A120U A145U C150A C169A U176G	0.00211
C82G A111G A120U A145U C150A C169A U176A	0.00256
C82G A111G A120U C169U	0.00572
C82G A111G A120U C169A	0.00418
C82G A111G A120U C169G	0.00481
C82G A111G A145C C150U C169A	0.00783
C82G A111G A145C C150U C169U	0.0102
C82G A111G A145C C150U C169G	0.00753
C82G A111G A145U C150A C169A U176G	0.00645
C82G A111G A145U C150A C169A U176C	0.0131
C82G A111G A145U C150A C169A U176A	0.0154
C82G A111G A145U C150G C169U U176C	0.016
C82G A111G A145U C150G C169U U176G	0.00577
C82G A111G A145U C150G C169U U176A	0.00966
C82G A111G A120U U176G	0.00562
C82G A111G A120U U176A	0.018
C82G A111G A120U U176C	0.0294
C82G A111G A145C C169U	0.0132
C82G A111G A145C C169A	0.00733
C82G A111G A145C C169G	0.00994
C82G A111G A145G C150U C169A	0.0104
C82G A111G A145G C150U C169U	0.0137
